According to article PMC2921341, “Interaction of Serum- and Glucocorticoid Regulated Kinase 1 (SGK1) with the WW-Domains of Nedd4-2 Is Required for Epithelial Sodium Channel Regulation” (PLoS ONE, 2010):

Legend:
[1] = system: ENaC; assay: Amiloride-sensitive short circuit current in FRT epithelia with ENaC: Nedd4-2 dose response with SGK, SGKY298A or GFP; assay type: cell-based; details: for effect on Nedd4-2 dose-response relationship for ENaC inhibition (in words): FRT epithelia with α-, β-, γENaC, 0.6 µg SGK construct, Nedd4-2 0–0.2 µg, amiloride 10 µM, n = 18
Description: To test the hypothesis that the interaction of the Nedd4-2 WW-domains with the SGK PY motif is required for SGK to influence Nedd4-2 function, we co-expressed α-, β- and γENaC in FRT epithelia with either wild type SGK or SGKY298A along with increasing amounts of Nedd4-2, and measured the amiloride-sensitive short circuit current.
Figure 4 The SGK PY motif is necessary for SGK to inhibit Nedd4-2. Amiloride-sensitive short-circuit sodium current (relative to 0 µg of Nedd4-2) in FRT cells 48 hr after transfection with α-, β- and γENaC and SGK (closed circles) or SGKY298A (open circles) or GFP (closed squares), in the presence of increasing amounts of Nedd4-2, n = 18. Nedd4-2 is expressed as a fraction of the amount of ENaC cDNA. Expression of SGK and SGKY298A was reported in Figure 1B of Snyder et al..
Fischer rat thyroid (FRT) cells were grown on permeable filter supports (Snapwell™, Corning USA or Millicell PCF, both with […] pore size, 12 mm diameter) in F-12 Coon's media with 5% fetal calf serum (Sigma), 100 U/ml penicillin, and 100 µg/ml streptomycin at 37°C. One day after seeding, cells were cotransfected with α-, β- and γENaC (0.07 µg each), 0.6 µg wildtype or mutant SGK, and 0–0.2 µg Nedd4-2 (Fig. 4 only). Total DNA was held constant (1 µg/millicell) using cloning vector DNA. The plasmids were mixed with Lipofectamine 2000 (Invitrogen) or TFX 50 (Promega, Madison, WI; 7.9 µg/millicell) in serum free F12 Coon's media for 15 minutes and transferred to the apical surface of the monolayer. One-six hours later, the apical media was replaced with F-12 Coon's media containing 5% fetal calf serum and amiloride (10 µM). Short-circuit current was measured […] after transfection in modified Ussing chambers connected to a voltage clamp (South Campus Electronics, Dunedin, New Zealand or Warner Instruments). The apical and basolateral surfaces were bathed in (in mM) 135 NaCl, 1.2 CaCl2, 1.2 MgCl2, 2.4 K2HPO4, 0.6 KH2PO4, 10 HEPES, pH 7.4, at 37°C and bubbled with O2. Amiloride-sensitive short-circuit current (Isc-amiloride) was determined as the difference in current with and without amiloride (10 µM) in the apical bathing solution. Data are presented as relative Isc-amiloride (Isc-amiloride relative) that was obtained by normalizing the Isc-amiloride to that of control cells transfected with αβγENaC in the same experiment. Transepithelial resistance (Rt) was monitored by applying repetitive voltage potential pulses (5 mV for 1 sec at 120 sec intervals) across the epithelium.

[2] = system: Nedd4-2; details: previous work; ref [19]; cited from earlier work
Description: There has been debate in the literature over detection of an interaction between SGK and Nedd4-2 in vitro, and the interaction is currently not understood at the molecular level. SGK contains a PY motif (PPFY), which might mediate interaction with the WW-domains of Nedd4/Nedd4-2. […] Two previous in vitro binding studies have asked whether the WW-domains of Nedd4-2 interact with an SGK peptide containing the PY motif. […] To test the hypothesis that the interaction of the Nedd4-2 WW-domains with the SGK PY motif is required for SGK to influence Nedd4-2 function, we co-expressed α-, β- and γENaC in FRT epithelia with either wild type SGK or SGKY298A along with increasing amounts of Nedd4-2, and measured the amiloride-sensitive short circuit current. Consistent with our previous work, we fo ...

[3] = system: Nedd4-2; details: SGK lacking its PY motif; ref [20]; cited from earlier work
[4] = system: ENaC; assay: Amiloride-sensitive short circuit current in FRT epithelia transfected with α-, β- and γENaC; assay type: cell-based; details: serum-containing and serum-free media gave similar results, amiloride 10 µM, n = 4
Description: (§1) SGK is activated by phosphorylation, via a phosphatidylinositide 3-kinase (PI3K)-dependent pathway, and SGK is then able to phosphorylate substrates such as Nedd4-2. Although we were able to detect interaction of Nedd4-2 WW-domains with wildtype SGK (Fig. 1B, C), we hypothesized that an activated form of SGK might have a higher affinity for Nedd4-2. Therefore GST interaction experiments were performed comparing the binding of wildtype SGK and activated SGK (SGKS422D) to isolated Nedd4-2 WW-domains. SGKS422D appeared to run more slowly compared to SGK, consistent with it representing a phosphorylated form of SGK [8]. […] To ask if SGKS422D has an altered effect on Na^+ transport, we measured the amiloride-sensitive short circuit current in Fischer rat thyroid (FRT) epithelia transfected with α-, β-, and γENaC and either wildtype or activated SGK (Fig. 3C). […] Instead, increased binding of SGKS422D to Nedd4-2 may be a factor in the improved ability of SGKS422D to increase amiloride-sensitive current.
(§2) Figure 3 SGKS422D binding to Nedd4-2 and stimulation of ENaC is enhanced compared to wildtype SGK. (A) SGK-FLAG or SGKS422D-FLAG were expressed in COS7 cells. […] After washing the beads, the bound proteins were eluted and analyzed by SDS-PAGE and western blotting with anti-FLAG. […] (B) The resulting bands were quantified by densitometry and normalized to total expression of either SGK or SGKS422D. […]

[5] = system: Nedd4; details: in vitro studies; ref [19]; cited from earlier work
Description: There has been debate in the literature over detection of an interaction between SGK and Nedd4-2 in vitro, and the interaction is currently not understood at the molecular level. SGK contains a PY motif (PPFY), which might mediate interaction with the WW-domains of Nedd4/Nedd4-2. […] Two previous in vitro binding studies have asked whether the WW-domains of Nedd4-2 interact with an SGK peptide containing the PY motif. One study used surface plasmon resonance and ...

[6] = system: Nedd4-2 WW-domains; assay: GST interaction experiments, wildtype versus activated SGK on Nedd4-2 WW-domains; assay type: binding, human; details: GST pulldown with 50 µg WW2, WW3 or WW2–3 fusion, COS7 lysates, densitometry normalized to expression; n = 9 for WW2 and WW3, n = 6 for WW2–3
Description: as §1, §2

[7] = system: GST; assay: GST interaction experiments, GST alone (control); assay type: binding; details: GST pulldown control, COS7 lysates, Fig. 3A
Description: as §1, §2

Molecule | stimulation of ENaC in the presence of Nedd4-2 (in words) ([1]; FRT epithelia with ENaC and Nedd4-2) | effect on Nedd4-2 dose-response relationship for ENaC inhibition (in words) [1] | binding to full length Nedd4-2 (in words) [2] | phosphorylation of Nedd4-2 (in words) [3] | effect on amiloride-sensitive short circuit current, Isc-amiloride (in words) [4] | interaction with Nedd4 (in words) [5] | binding to Nedd4-2 WW-domains compared with wildtype SGK (in words) [6] | binding to GST alone (in words) [7]
SGKY298A: SGK that contains a mutated PY motif (protein, left off: FLAG, end not stated, state not stated, SGK that contains a mutated PY motif) MTVKTEAAKGTLTYSRMRGMVAILIAFMKQRRMGLNDFIQKIANNSYACKHPEVQSILKISQPQEPELMNANPSPPPSPSQQINLGPSSNPHAKPSDFHFLKVIGKGSFGKVLLARHKAEEVFYAVKVLQKKAILKKKEEKHIMSERNVLLKNVKHPFLVGLHFSFQTADKLYFVLDYINGGELFYHLQRERCFLEPRARFYAAEIASALGYLHSLNIVYRDLKPENILLDSQGHIVLTDFGLCKENIEHNSTTSTFCGTPEYLAPEVLHKQPYDRTVDWWCLGAVLYEMLYGLPPFASRNTAEMYDNILNKPLQLKPNITNSARHLLEGLLQKDRTKRLGAKDDFMEIKSHVFFSLINWDDLINKKITPPFNPNVSGPNDLRHFDPEFTEEPVPNSIGKSPDSVLVTASVKEAAEAFLGFSYAPPTDSFL | failed to stimulate ENaC activity in the presence of Nedd4-2 | had no effect on the Nedd4-2 dose-response relationship | not able to bind full length Nedd4-2 | less able to phosphorylate Nedd4-2 |  |  |  | 
SGK: Serum- and Glucocorticoid regulated Kinase isoform 1 (protein, UniProt O00141 1-431, looked up) Serine/threonine-protein …: MTVKTEAAKGTLTYSRMRGMVAILIAFMKQRRMGLNDFIQKIANNSYACKHPEVQSILKISQPQEPELMNANPSPPPSPSQQINLGPSSNPHAKPSDFHFLKVIGKGSFGKVLLARHKAEEVFYAVKVLQKKAILKKKEEKHIMSERNVLLKNVKHPFLVGLHFSFQTADKLYFVLDYINGGELFYHLQRERCFLEPRARFYAAEIASALGYLHSLNIVYRDLKPENILLDSQGHIVLTDFGLCKENIEHNSTTSTFCGTPEYLAPEVLHKQPYDRTVDWWCLGAVLYEMLYGLPPFYSRNTAEMYDNILNKPLQLKPNITNSARHLLEGLLQKDRTKRLGAKDDFMEIKSHVFFSLINWDDLINKKITPPFNPNVSGPNDLRHFDPEFTEEPVPNSIGKSPDSVLVTASVKEAAEAFLGFSYAPPTDSFL |  | reduced inhibition, shifting the dose-response relationship to the right | Nedd4 and Nedd4-2 interact with wildtype SGK |  | stimulated Isc-amiloride significantly | Nedd4 and Nedd4-2 interact with wildtype SGK |  | 
SGKS422D: activated SGK; mutation of one of two phosphorylation sites (protein, left off: FLAG, C-terminal, kept, mutation of one of two phosphorylation sites) MTVKTEAAKGTLTYSRMRGMVAILIAFMKQRRMGLNDFIQKIANNSYACKHPEVQSILKISQPQEPELMNANPSPPPSPSQQINLGPSSNPHAKPSDFHFLKVIGKGSFGKVLLARHKAEEVFYAVKVLQKKAILKKKEEKHIMSERNVLLKNVKHPFLVGLHFSFQTADKLYFVLDYINGGELFYHLQRERCFLEPRARFYAAEIASALGYLHSLNIVYRDLKPENILLDSQGHIVLTDFGLCKENIEHNSTTSTFCGTPEYLAPEVLHKQPYDRTVDWWCLGAVLYEMLYGLPPFYSRNTAEMYDNILNKPLQLKPNITNSARHLLEGLLQKDRTKRLGAKDDFMEIKSHVFFSLINWDDLINKKITPPFNPNVSGPNDLRHFDPEFTEEPVPNSIGKSPDSVLVTASVKEAAEAFLGFDYAPPTDSFL |  |  |  |  | greater stimulatory effect on Isc-amiloride compared to SGK |  | binds Nedd4-2 WW-domains more strongly than SGK | did not bind to GST alone
